Laboratory results: patent publication US20090246191A1

Key:
[1] = target: Aβ40 monomer (wild-type amyloid β peptide 1-40) (Artificial)
[2] = target: Aβ40 fibrils (Artificial); test: EuLISA, plate-immobilised Aβ40 fibrils
[3] = target: soluble cross-linked β-amyloid protein species (CAPS) prepared from Aβ40 (Artificial); test: EuLISA, plate-immobilised CAPS
[4] = target: Aβ40 monomer (wild-type amyloid β peptide 1-40) (Artificial); test: EuLISA, plate-immobilised wild-type Aβ40 monomer
[5] = target: F19P Aβ40 monomer (Artificial); test: EuLISA, plate-immobilised F19P Aβ40 monomer (value in brackets)
[6] = target: LC (Jto) fibrils, formed from recombinant Vλ6 Jto; test: EuLISA, plate-immobilised LC fibrils

formation of SDS stable cross-linked Aβ40 oligomers (SDS PAGE) [1]	EC50 [2]	EC50 [3]	EC50 [4]	EC50 [5]	EC50 [6]	Substance
65%						ImmunoPure Horseradish peroxidase (HRP) (from UniProt P00433) (enzyme)
	1080 nM	631 nM	861 nM	3670 nM	1510 nM	unfractionated IGIV (Gammagard Liquid, human immune globulin intravenous) (polyclonal serum or antibody)
